In article PMC2972695:

Experiments:
[1] = target: T1, GST-SHOX2 (UniProt O60902 1-331); assay: EMSA
[2] = target: T1, GST-SHOX2; assay: competition

T1 sequence (O60902 whole entry): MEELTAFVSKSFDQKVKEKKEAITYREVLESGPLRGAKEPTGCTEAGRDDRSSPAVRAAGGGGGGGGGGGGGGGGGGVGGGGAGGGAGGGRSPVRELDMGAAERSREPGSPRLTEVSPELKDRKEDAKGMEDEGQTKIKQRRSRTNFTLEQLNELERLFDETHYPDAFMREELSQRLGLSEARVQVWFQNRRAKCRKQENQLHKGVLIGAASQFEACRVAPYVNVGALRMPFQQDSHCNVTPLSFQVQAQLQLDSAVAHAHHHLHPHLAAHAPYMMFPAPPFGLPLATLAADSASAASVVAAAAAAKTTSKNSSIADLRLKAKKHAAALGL

B1: BMP4 EMSA oligonucleotide (34 bp conserved promoter motif) (dsDNA)
DNA 1: GGGTCTCATTATATTCAAATATTCCTTTTAGGAGCCA
DNA 2: GGGTGGCTCCTAAAAGGAATATTTGAATATAATGAGA
B1: binds [1].

B2: BMP4 oligonucleotide, unlabelled homologous competitor (dsDNA)
DNA 1: GGGTCTCATTATATTCAAATATTCCTTTTAGGAGCCA
DNA 2: GGGTGGCTCCTAAAAGGAATATTTGAATATAATGAGA
B2: binds [2].
